Source: paper PMC8452627
pKd: −log10 of the molar value.

Experiments:
[1] = target: human FcRn (human) (UniProt P55899); test: SPR; steady-state equilibrium binding assay on ProteOn; human FcRn at pH 6
[2] = target: human FcγRIIa (human) (UniProt P12318); test: SPR; steady-state equilibrium binding assay on ProteOn; human Fcγ receptors
Chain of UniProt P12318 (P12318 34-317): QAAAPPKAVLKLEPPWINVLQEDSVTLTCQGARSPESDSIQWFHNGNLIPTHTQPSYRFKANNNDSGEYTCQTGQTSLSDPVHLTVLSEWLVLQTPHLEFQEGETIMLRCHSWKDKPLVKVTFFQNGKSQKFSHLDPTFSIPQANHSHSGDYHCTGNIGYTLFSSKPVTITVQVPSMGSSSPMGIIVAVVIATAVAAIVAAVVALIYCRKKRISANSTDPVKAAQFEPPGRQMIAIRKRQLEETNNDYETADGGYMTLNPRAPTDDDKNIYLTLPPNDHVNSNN

Chain of UniProt P55899 (P55899 24-365): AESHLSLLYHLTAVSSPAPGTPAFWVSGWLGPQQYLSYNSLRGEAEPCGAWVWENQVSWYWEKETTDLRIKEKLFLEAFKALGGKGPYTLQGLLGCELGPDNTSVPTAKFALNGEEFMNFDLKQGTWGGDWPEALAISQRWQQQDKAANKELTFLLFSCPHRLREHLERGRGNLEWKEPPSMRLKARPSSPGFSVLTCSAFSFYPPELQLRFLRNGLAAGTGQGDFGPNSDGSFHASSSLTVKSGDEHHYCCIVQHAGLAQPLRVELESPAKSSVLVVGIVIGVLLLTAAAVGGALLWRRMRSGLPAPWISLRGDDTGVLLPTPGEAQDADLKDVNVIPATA

pKd [1]: 5.21
pKd [2]: 5.85
Substance: isotype control of human IgG4 S228P (antibody)
